Data taken from the nanobody polyreactivity screen of Harvey et al. (2022).

Assay: yeast display, Sf9 membrane polyspecificity reagent, FACS + sequencing; frameworks hold sequencing errors
Outline: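 Polyreactivity labels are assigned by the sorting gate from which each nanobody was recovered. The gates were low and high (top ~1%), set on anti-HA fluorescence for expression and streptavidin fluorescence for reagent binding. Before sorting, galactose-induced (36–48 hours) yeast display cells were stained for 1 hour at 4 °C with 10% biotinylated, detergent-solubilized Sf9 membrane reagent.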

| Sequence | polyreactivity (PSR sort gate) |
| --- | --- |
| QVQLVESGGGLVQPGGSLRLSCAASGSIDCYGMGWYRQAPGKERELVAIITSVYSTYYADSVKGRFKISRDNAKNTVYLQMNSLKPEDTAVYYCAATAAYFYGQFYYWGQGTQVTVSS | high polyreactivity |
| QVQLQESGGGLVQAGGSLLLSCAASGTICDSGLMGWYRQAPGKERELVDVISSGGITNYADSVKGRYTISRDNAKNTVYMQMNSLKPEDTAVYWGQGPQVTVSS | low polyreactivity |
| QVQLVESGGGLVQAGGSLRLSCAASGYTFGYNAMGWYRQAPGKERELVATISSGGTTTYADSVKGRFTISRDNAKNTVYLQMNSLKPEDTAVYYCNVYDYPTYDYWGQGTQVTVSS | low polyreactivity |
| QVQLVESGGGLVQAGGSLRLSCAASGGTLYLYAMGWYRPAPGKERELVAAISYNGGSTYADSVKGRFTISRDNAKNTVYLQMNSLKPEDTAVYYCAADRSPRCLGGYWGQGTQVTVSS | low polyreactivity |
| QVQLVESGGGLVQAGGSLRLSCAASGSIFYGNVMGWYRQAPGKERELVAAISSSGGSTYYADSVKGRFTISRDTAKNTVYLQMNSLKPEDTAVYYCAAYWWSRVVRGSRYDYWGQGTQVTVSS | low polyreactivity |
| QVQLVESGGGLVQAGGSLRLSCAASGFTIGYYAMGWYRQAPGKERELDAAISSGGGSTKYADSVKGRFTISRDNAKNTVYLQMNSLKPVDTAVYYFAKSRLVRGRSSYDYWGQGSQVTVSS | high polyreactivity |
| QVQLVESGGCLVQAGGSLRLSCAASGRIFQGYAMAWYRQAPGKEREFVAAITLSGGSTYYADSVKGRFTISRDNAKNTVYLQMNSLKPEDTAVYYCNAYYPDEPSLDDYWGQGTQVTVSS | low polyreactivity |
| QVQLVESGGGIVQAGGTLRLSCAPYGSNYYAMACYRQAPGKDRDFVAAITTRGGGTYYADSVKGRFTISRDNAQNTVYLQMFSLKPVDTAVYVCAAEDYRPRTYVYRYRYYYWGQGTQVTVSS | high polyreactivity |
| QVQLVESGGGLVQAGGCLRLSCAGSRSTFHYYTMGWYRQAPGKERELVAAISWRGTSTYYADSVKGRFTISRDNAKNTLYVQMNSLKPEDTGVYYCAVRSSPGAGYYYWGQGTQGTVSS | high polyreactivity |
| QVQLVESGGGLVQAGGSLRLICAASGRTFRGYAMGWYRQAPGKERELVAAISVTGSSTNYADSVKGRFTISRDNAKNTVYLQMNSLKPEDTAVYYCNAKRVRYSLSYDYWGQGTQVTVSS | high polyreactivity |
| QVQLVESGGGLVQAGGSLRLSCAASGLTFYYNAMGWYRQAPGKERELVAAITRGTSTHYADSVKWRFTISRDNAKNTVYLQMNSLKPEDTAVYYCAAPYRYSWWRGDYWGQGTQVTVSS | high polyreactivity |
| QVQLVESGGGLVQAGGSLRLSCAASGSIVGGYDMGWYRQAPGKERELVAVINSNGGSTYYADSVKGRFTISRDNANNTVYLQMNSLKPEDTAVYYCAADYESYVYIGYGYWGQGTQVTVSS | low polyreactivity |
| QVQLVESGGGLVQEGGSIRLSCAASGSTFFLYAMGWYRQAPGKERELVAAITYTDGDTYYADSVKGRFTISRDNAKNTVYLQMNSLKPEDNAVYYCNAGGDEPVYGSGYDYWGQGTQVTVSS | low polyreactivity |
| QVQLVESGGGLVQAGGSLRLSCAASGITFPYYAMGWYRQAPGKERELVAAITIRSGRTYYADSVKGRFTISRDNAKNTVYLQMNSLKPEDTAVYYCAARLSNTYGYWGQGTQVTVSS | high polyreactivity |
| QVQLVESGGGLVQAGGSLRLSCAASGRILIRKAMGWYRQAPGKERELVAAINRGGGSTYYADSVKGRITISRDNAKNTVYLQMISLNPDDTAVYYCAADRKAGYSRVDGDYWGQGTQVTVSS | low polyreactivity |
| QVQLVESGGGLVQAGGSLRLSCAASGRIFRYYAKGWYRQAPGKERELVARIRWSGGSTYYADSVKGRFTISRDNAKNTVYLQMNSLKPEDTAVYYCNAGSWSYRYNYWGQGTQVTVSS | high polyreactivity |
| QVQLVESGGGLVQAGGSLRLSCAASGSIFWSNAMGWYRQSPGKEREFVASISSSGSTNYADSVKGRFTISRDNAKNTVYLQMNSLKPEDTAVYYCNADGLYSYWYFWSSAYDYWGQGTQVTVSS | low polyreactivity |
| QVQLVESGGGLVQAGGSLRLSCAASGSTFLDNAMGWYIQAPGKERELVAAITQSGSSTYYPDSVKGRFTISRDTAKNTVYLQMNSLKPEATAVYYCAADVPNISFDYWGQGTQVTVSS | low polyreactivity |
| QVQLVESGGGLVQAGGSLRLSCAASGSTLYTYAMGWYRQAPGKERELVATISWSGSSTYYADSVKGRFTISRDNAKNTVYLQMNSLKPEHTAVYYCAAPYHYWYRLDYWGQGTQVTVSS | high polyreactivity |
| QVQLVESGGGLVQAGGSLRLSFAASGRIFGGYGMGWYRQAPGKERELVAAIDADAGSTYYADSVKGRFTISRDNAKNTVYLQLNSLKPEDTAVYYCAPVDQVAVDKHDYWGQGTQVTVSS | low polyreactivity |
| QVQLVESGGGLVQAGGSLRLSCAASGITFRLYAMGWYRQAPGKERELVAAISKRGGSTYYADSVKGRFTISRDNAKNTVYLPMNSLKPDDTAVYYCAADSGWEHRYDYWGQGTQVTVSS | high polyreactivity |
| QVHLVESGGGLVQAGGSLRLSCAASGRIFTYYAMGWYRQAPGKERELVAAINSRGGRTYYADSVKGRFTISRDNAKNTVYLQMNSLKPEDTAVYYCNKAVYFAWGWGLRDYDYWGQGTQVTVSS | high polyreactivity |

| Sequence | polyreactivity (PSR sort gate) |
| --- | --- |
| QVQLVESGGGLVQAGGSLRLSCAASGSIFAYNAMGRYRQAPGKEREYVAAISQSGGRTYYADSVKGRFTISRDTSKNTVYLQMNSLKPEDTAVYYCATDGIRLTRHRDYDYWGQGTQVTVSS | low polyreactivity |
| QLQLVESGGGLVQAGGSLRLSCAASGLTFYSYPMGWYRQARGKERELVATIRSSGGSSYYADSVKGRFTISRDNAKNTVYLQMNSLKPEDTAVYYCAARWGPYAFTYVRTYDYWGHGTQVTVSS | low polyreactivity |
| QVQLVESGGGLVQAGGSLRLSCAASGIIFPSYAMGWYRQAPGKERELVAAISLSGGRTYYADSVKGRFTISRDNAKNTVYLQMNSLKPEDTAVYYCAAYPTTRYSKYGYYWGQGTQVTVSS | high polyreactivity |
| QVQLVESGGGLVQAGGSLRLSCAASGSTFGSYVMGWYRQAPGKERELVAAIRWSGTSTYYADSVKGRFTISRDNAKNTVYLQLNSLKPEDTAVYYCNATPNYNRGDHTPMDYWGQGTQVTVSS | low polyreactivity |
| QVQLVESGGGLVQAGGSLRLSCAASGRIFPYNAMGWYIQGPGKERELVAAISGGGSSTYYADSVKGRFTISRDNAKNTVYLQMNSLKPEVTAVYYCAAQAWWDGEYDYWGQGTKVTVSS | high polyreactivity |
| QVQLVESGGGLVQAGGSHRLSCAASGGIFYFNAMGWYRQAPGKERELVASITWSGGNTYYADSVKGRFTISRDNAKNTVYLQMNSLKPEDTAVYYCAADTQEYRPTYDYWGQGTQVTVSS | low polyreactivity |
| QVQLVESGGGLVQAGGSLRLSCAASGSIFISNAMGWYRQAPGKERELVAAISRSGARTYYADSVKGRFTISRDNAKNTVYLQMNSLKPEDTAVYYCAVDGYSPYKYDYWGQGTQVTVSS | high polyreactivity |
| QVQLVESGGGLVKAGSSLRLSCAASGSIFLYNAMGWYRQAPGKERELVAVINGRGGTYYADSVKGRFTISRDNAKNTVYLQMNSLKPEDNSVYYCATGYPPSAWYDSVRFEDRDSWGQCTQVTVSS | low polyreactivity |
| QVQLVESGGGLVQAGGSLRLSCAASGSTFLGYAMGWSRQAPGKERELVAAINLSTSGTYYADSVKGRFTISRDNAKNTVYLQMNSLKPEDTAVYYCAAAYSNINYYYQYYYWGQGTQVTVSS | low polyreactivity |
| QVQLVESGGGLVQAGGSLRLSCAASGRTLTIYAMGWYRQAPGKERELVATIRSSGSTNYADSVKGRFTISRDNAKNTVYLQMNSLKPEDTAVYYCAARGNTPRTRRYGYWGQGTQVTVSS | high polyreactivity |
| QVQLVEAGGGLVQAGGSLRLSCAASGITFGDNAMGWYIQAPGKDRELVAAITLSDVDTYADSVKGRFTISRDNSKNTVYLQMISLKPEDTAVYDCAADYDFFSLYLYDYWGQGTQVTVSS | low polyreactivity |
| QFQLEESGGGLVQAGGSLRLSCAASGSTFLRYAMGWYRQAPGKERELVAAITGRGTRTYYADSVKGRFTISRDNAKNTVYLQMNSLKPEDTAVYYCAAELSFTPRYYEGRIFYYWGQGTQVTVSS | high polyreactivity |
| QVHLVESGGGLVQAGGSLRISCAATGYTFLYNAMGWYRQAPGKEREFVAGIRRSVGSTYYADSVKGRFTISRDNAKNTVYLQMNSMTREDTAVYYCALVPALYRYRVGTYAYDYWGQGTQVTVSS | low polyreactivity |
| QEQLQESGGGLVQAGGSLRLSCAASGNIYDADIMGWYRQAPGKERELVTSITDGGSTNYADSVKGRFTISRDNAKNTVYLQMNSLKPEDTAVYYCAAIAYPDIPTSFDYNSDYSYWGQGTQVTVSS | low polyreactivity |
| QVQLVESGGGLVQAGGSLRLSCAASGFTFDYYAMGWYRQAPGKERELVAAISVSDSSTYYADSVKGRFTISRDNAKNTGDLQMNSLKPEDTAVYYCAAEYYVGFTYRYEYWGQGTQVTVSS | low polyreactivity |
| QDQLVDSGGGLVQAGGSLRLICAASGRTYRKYAMGWYRQAPGKERELVADISWSGGSTYYANSVKGRFTISRDIAKNTVYLQMNSLKPEDTAVYYCAAVPVHTGSLYWGFTTGYDYWGQGTQVTVSS | low polyreactivity |
| QVQLVESGGGLVQAGGSLRLSCAASGNIFGVYAMGWYRQAPGKERELVAAIRYSTVSTYYADSVKGRFTISRDKAKNTVYLQMNSLKPQDTAVYNSAAHRYYWSLYGYDYWGHGTQVTVSS | high polyreactivity |
| QVQLVESGGGLVQAGGSLRLSCAASGSTFNGYAMGWYRQAPGKERELVAAISKRGGSTYYADSVKGRFTISRDNAKNTVYLQMNSLKPEDTAVYYCAARNPTKYLMDYWGKGTQVTVSS | high polyreactivity |
| QVQLVESGGGLVQAGGSLRLSCAASGFISSDYAMGWYRQAPGKEREFVAGISRGGGSTYYADSVKGRFTISRDHAKNTVYLQMISLKPEDTAVYYCNARTSLRKYQYYYWGQGTQVTVSS | high polyreactivity |
| QVQLVESGGGLVQAGGSLSLSCAASGGIFARNVMGWYRQAPGKERELVADISGSGGSTYYADSVKGRFTISRDNAKNTVYLQMNSLKPEDTAVYYCAARTPGVSVYKDGYWGQGTQVTVSS | low polyreactivity |
| QVQLVESGGGLVQAGGSLRLSCAASGRTFGRYAMGWYRQAPGKESELVAAISWTGGRTYYADSVKGRFTISRDNAKNTVYLQMNSLKPEDTAVYYGAALYDRIPAASRGYDSWGQVTQVTVSS | high polyreactivity |
